Key:
[1] = in vivo; set-up: species or system mice; details: female, nude, mouse, iv, 38 uCi, total radioactivity
Protocol: (§1) Animal experiments. Due to its high sst2-somatostatin receptor expression, the rat pancreatic tumor cell line AR42J was used as a tumor model.^55 To establish tumor growth, cells were detached from the surface of the culture flasks using 1 mM EDTA in PBS, centrifuged and re-suspended in serum-free culture medium (RPMI-1640, Biochrom, Berlin, Germany). Concentration of the cell suspension was 3.7×10^6 cells/100 μL serum. Nude mice (female, 6-8 weeks) were injected 100 μL of the cell suspension subcutaneously into the flank.
(§2) For biodistribution studies, mice were intravenously injected 38 μCi [^68Ga]19 (corresponding to 0.15 μg of peptide) in 100 μL PBS into the tail vein. Non-specific tissue accumulation of the radioligand was determined by coinjection of an excess of cold competitor (20 μg Tyr^3-octreotide/mouse). At different time points after radioligand injection (30 and 60 min p.i.) mice (n=5 per time point; n=3 for blocking study at 60 min p.i.) were sacrificed and dissected. The organs of interest were removed, weighed and counted in a […] (Wallach, Turku, Finland). Data are expressed as percent injected dose per gram tissue (% iD/g).

[2] = system: AR42J tumor bearing nude mice; experiment: in vivo; details: mouse
Protocol: as §1, §2

[3] = blood concentration of the radioligand

## CC(=NOCC(=O)N[C@H](Cc1ccccc1)C(=O)N[C@H]1CSSC[C@@H](C(=O)N[C@H](C(=O)O)[C@@H](C)O)NC(=O)[C@H]([C@@H](C)O)NC(=O)[C@H](CCCCN)NC(=O)[C@@H](Cc2c[nH]c3ccccc23)NC(=O)[C@H](Cc2ccc(O)cc2)NC1=O)c1ccc(C(C(=O)O)N2CCN(CC(=O)O)CCN(CC(=O)O)CCN(CC(=O)O)CC2)cc1 (stereo partly shown) [[^68Ga]19, metal not drawn]
[1]; [3]
  tissue uptake at 0.5 h: 2.37 ± 0.35 %ID/g
  tissue uptake at 1 h: 1.71 ± 0.17 %ID/g
[1]; kidney accumulation
  tissue uptake at 0.5 h: 20 ± 2.4 %ID/g
  tissue uptake at 1 h: 11.9 ± 1.9 %ID/g
[1]; tumor accumulation
  tissue uptake at 0.5 h: 7.73 ± 1.52 %ID/g
  tissue uptake at 1 h: 7.46 ± 1.3 %ID/g
[2]
  tumor/organ ratios (change): increasing tumor/organ ratios

From patent US20100081799A1, “Chelating Agent” (priority 2006, published 2010)
